The test concerns the target T1, MEI-2, wild type (from MBP-TEV-MEI-2) (C. elegans, UniProt O44740 1-280).
T1 sequence (looked up): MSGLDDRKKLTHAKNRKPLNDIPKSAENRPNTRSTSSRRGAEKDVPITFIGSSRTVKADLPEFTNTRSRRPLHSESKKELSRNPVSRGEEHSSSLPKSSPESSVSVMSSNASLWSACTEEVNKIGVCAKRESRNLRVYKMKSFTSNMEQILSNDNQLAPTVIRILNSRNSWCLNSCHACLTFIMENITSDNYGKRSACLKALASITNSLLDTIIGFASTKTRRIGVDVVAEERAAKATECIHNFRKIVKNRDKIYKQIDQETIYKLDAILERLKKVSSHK
In words: pull-down.

B1: MEI-1 (short isoform), untagged, wild type (enzyme, C. elegans, UniProt P34808 1-472, looked up)
chain: MNGDVQSVIRGYLERAQVAKTMSDAGRWNEAGDLLRQLMTDVKSCKISASNRDEHDARNTFLRALEANLKLVQQNVRDEDDLHEAMTRQSGSPEPPADPDVWSKPSPPLPSSSKFGATKKGVGAAGPRPREISKSTSSMSTNPADVKPANPTQGILPQNSAGDSFDASAYDAYIVQAVRGTMATNTENTMSLDDIIGMHDVKQVLHEAVTLPLLVPEFFQGLRSPWKAMVLAGPPGTGKTLIARAIASESSSTFFTVSSTDLSSKWRGDSEKIVRLLFELARFYAPSIIFIDEIDTLGGQRGNSGEHEASRRVKSEFLVQMDGSQNKFDSRRVFVLAATNIPWELDEALRRRFEKRIFIPLPDIDARKKLIEKSMEGTPKSDEINYDDLAARTEGFSGADVVSLCRTAAINVLRRYDTKSLRGGELTAAMESLKAELVRNIDFEAALQAVSPSAGPDTMLKCKEWCDSFGAM
In the case of B1, the “stoichiometry N” value is 1 MEI-1:MEI-2.

The record behind these values is PMC3967969 (Molecular Biology of the Cell, 2014).
